Data taken from paper PMC12203367, “Shikimate Kinase-Like 1 Participates in an Ancient and Conserved Role Contributing to Chloroplast Biogenesis in Land Plants” (Molecular Biology and Evolution, 2025).

Substrate: O=C(O)C1=C[C@@H](O)[C@@H](O)[C@H](O)C1
Assay: purified protein
Type: biochemical, Marchantia polymorpha
Details: 2.5 mM ATP, 1 mM MgCl2, 50 mM Tris-HCl pH 7.5, 200 mM NaCl, 30 °C, shikimate 0-3 mM

B1: MpSK (Δ113MpSK) (Marchantia polymorpha) (protein)
chain: QYSLELQEDEELLKKKAALVVQQLAGSCIFLVGMMGSGKTTVGKHVSEALGYYFFDSDKLVEESRGKTVAEMFRYGREEEFRNAESEVLEQLSSMVRLVVATGGGAVVRPENWSYLRHGITVWLDVPVDSLAERVVAVGCHSRPLLGVQAHDSAYKQALERLTHILQERADFYASADAVVSVEELARKRGQDINSITPTMIAVQVLEEISKMLERGDRDPSLQY
notes: N-terminal 113 residues (predicted chloroplast transit peptide) removed; cloned from Tak-2 cDNA; pET28a-MOD, C-terminal His6 cleaved by TEV; E. coli BL21-CodonPlus
Q: Which results are given for B1?
A: Km: 782.5 µM; kcat: 1.0 s⁻¹
